Assay results from patent publication US20180237511A1 (Sanofi, published 2018).

T1: human beta-dystroglycan extracellular domain (soluble) (human, UniProt Q14118 654-749)
T1 construct: extracellular domain; The expression construct of soluble human beta-DG is not described (only the mouse one); also called hBeta-DG; hbeta-DG
T1 sequence (looked up): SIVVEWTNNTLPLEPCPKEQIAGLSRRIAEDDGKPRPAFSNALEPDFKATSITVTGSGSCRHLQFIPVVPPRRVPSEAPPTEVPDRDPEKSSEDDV


Molecular target: T1, human beta-dystroglycan extracellular …
Test: SPR, antibody on Protein G chip, beta-DG in flow, 1:1 model (table title says laminin-2; paragraph 445 says human beta-DG)
Description: Data was evaluated with a 1:1 binding model using the BIAevaluation software.
SPR was used as described above to analyze the kinetics of triAb binding to laminin-2 (Table N) or beta-DG (Table O).

Kd [nM] | koff [s⁻¹] | kon [M⁻¹ s⁻¹] | Binder
1.6 | 0.00433 | 2.7e+06 | triAb 3423 (bispecific antibody, Trivalent: CODV arm VH1/VL1 C3_Hu10, VH2/VL2 C21_Hu11) light 1: EIVLTQSPDFLSVTPKEKVTLSCRASQSISNYLHWYQQKSDQSPKLLIKYASQSISGIPSRFSGSGSGTDFTLSINSVEAEDAATYFCQQSKSWPRTFGGGTKLEIKDKTHTEIVLTQSPDFLSVTPKEKVTLTCRASQSISNNLHWYQQKSDQSPKLLIKYASQSISGIPSRFSGSGSGTDFTLTINSVEAEDAATYFCQQSKSWPRTFGGGTKLEIKDKTHTRTVAAPSVFIFPPSDEQLKSGTASVVCLLNNFYPREAKVQWKVDNALQSGNSQESVTEQDSKDSTYSLSSTLTLSKADYEKHKVYACEVTHQGLSSPVTKSFNRGEC heavy 1: EVQLVESGGGLVKPGGSLRLSCAASGFTFSSYTMSWVRQAPGKGLEWVASISSSGSNTYYPDSVKGRFTISRDNAKNNLYLQMNSLRAEDTALYYCARFDYGSSLDSWGQGTLLTVSSDKTHTEVQLVESGGGLVKPGGSLRLSCAASGFTFSSYTMSWVRQAPGKGLEWVASISSSGSNTYYPDSVKGRFTISRDNAKNNLYLQMNSLRAEDTALYYCARFDYGSSLDSWGQGTLLTVSSDKTHTASTKGPSVFPLAPSSKSTSGGTAALGCLVKDYFPEPVTVSWNSGALTSGVHTFPAVLQSSGLYSLSSVVTVPSSSLGTQTYICNVNHKPSNTKVDKKVEPKSCDKTHTCPPCPAPELLGGPSVFLFPPKPKDTLYITREPEVTCVVVDVSHEDPEVKFNWYVDGVEVHNAKTKPREEQYNNASRVVSVLTVLHQDWLNGKEYKCKVSNKALPAPIEKTISKAKGQPREPQVYTLPPCRDELTKNQVSLWCLVKGFYPSDIAVEWESNGQPENNYKTTPPVLDSDGSFFLYSKLTVDKSRWQQGNVFSCSVMHEALHNHYTQKSLSLSPG heavy 2: QVQLVQSGAEVVKPGSSVKVSCEASGFTFTDSVITWVRQRPGQGLEWIGEIYPGSGNFYYNEKFQGRVTITADKSTSTAYMELSSLRSEDTAVYFCAMRRSSWGQGTLVTVSSASTKGPSVFPLAPSSKSTSGGTAALGCLVKDYFPEPVTVSWNSGALTSGVHTFPAVLQSSGLYSLSSVVTVPSSSLGTQTYICNVNHKPSNTKVDKKVEPKSCDKTHTCPPCPAPELLGGPSVFLFPPKPKDTLYITREPEVTCVVVDVSHEDPEVKFNWYVDGVEVHNAKTKPREEQYNNASRVVSVLTVLHQDWLNGKEYKCKVSNKALPAPIEKTISKAKGQPREPQVCTLPPSRDELTKNQVSLSCAVKGFYPSDIAVEWESNGQPENNYKTTPPVLDSDGSFFLVSKLTVDKSRWQQGNVFSCSVMHEALHNRFTQKSLSLSPG light 2: DVVMTQTPLSLSVTPGQPASISCKSSQTIVHSNSKTYLEWYLQKPGQSPQLLIYKVSSRFSGVPDRFSGSGSGTDFTLKISRVEAEDVGVYYCFQGSHVPLTFGQGTKLEIKRTVAAPSVFIFPPSDEQLKSGTASVVCLLNNFYPREAKVQWKVDNALQSGNSQESVTEQDSKDSTYSLSSTLTLSKADYEKHKVYACEVTHQGLSSPVTKSFNRGEC
1.87 | 0.0045 | 2.41e+06 | triAb 3437 (bispecific antibody, Trivalent: CODV arm VH1/VL1 C21_Hu11, VH2/VL2 C3_Hu11) light 1: EIVLTQSPDFLSVTPKEKVTLTCRASQSIGNNLHWYQQKSDQSPKLLIKYASQSISGIPSRFSGSGSGTDFTLTINSVEAEDAATYFCQQSKSWPRTFGGGTKLEIKDKTHTEIVLTQSPDFLSVTPKEKVTLSCRASQSISNYLHWYQQKSDQSPKLLIKYASQSISGIPSRFSGSGSGTDFTLSINSVEAEDAATYFCQQSKSWPRTFGGGTKLEIKDKTHTRTVAAPSVFIFPPSDEQLKSGTASVVCLLNNFYPREAKVQWKVDNALQSGNSQESVTEQDSKDSTYSLSSTLTLSKADYEKHKVYACEVTHQGLSSPVTKSFNRGEC heavy 1: EVQLVESGGGLVKPGGSLRLSCAASGFTFSSYTMSWVRQAPGKGLEWVASISSSGSNTYYPDSVKGRFTISRDNAKNNLYLQMNSLRAEDTALYYCARFDYGSSLDSWGQGTLLTVSSDKTHTEVQLVESGGGLVKPGGSLRLSCAASGFTFSSYTMSWVRQAPGKGLEWVASISSSGSNTYYPDSVKGRFTISRDNAKNNLYLQMNSLRAEDTALYYCARFDYGSSLDSWGQGTLLTVSSDKTHTASTKGPSVFPLAPSSKSTSGGTAALGCLVKDYFPEPVTVSWNSGALTSGVHTFPAVLQSSGLYSLSSVVTVPSSSLGTQTYICNVNHKPSNTKVDKKVEPKSCDKTHTCPPCPAPELLGGPSVFLFPPKPKDTLYITREPEVTCVVVDVSHEDPEVKFNWYVDGVEVHNAKTKPREEQYNNASRVVSVLTVLHQDWLNGKEYKCKVSNKALPAPIEKTISKAKGQPREPQVYTLPPCRDELTKNQVSLWCLVKGFYPSDIAVEWESNGQPENNYKTTPPVLDSDGSFFLYSKLTVDKSRWQQGNVFSCSVMHEALHNHYTQKSLSLSPG heavy 2: QVQLVQSGAEVVKPGSSVKVSCEASGFTFTDSVITWVRQRPGQGLEWIGEIYPGSGNFYYNEKFQGRVTITADKSTSTAYMELSSLRSEDTAVYFCAMRRSSWGQGTLVTVSSASTKGPSVFPLAPSSKSTSGGTAALGCLVKDYFPEPVTVSWNSGALTSGVHTFPAVLQSSGLYSLSSVVTVPSSSLGTQTYICNVNHKPSNTKVDKKVEPKSCDKTHTCPPCPAPELLGGPSVFLFPPKPKDTLYITREPEVTCVVVDVSHEDPEVKFNWYVDGVEVHNAKTKPREEQYNNASRVVSVLTVLHQDWLNGKEYKCKVSNKALPAPIEKTISKAKGQPREPQVCTLPPSRDELTKNQVSLSCAVKGFYPSDIAVEWESNGQPENNYKTTPPVLDSDGSFFLVSKLTVDKSRWQQGNVFSCSVMHEALHNRFTQKSLSLSPG light 2: DVVMTQTPLSLSVTPGQPASISCKSSQTIVHSNSKTYLEWYLQKPGQSPQLLIYKVSSRFSGVPDRFSGSGSGTDFTLKISRVEAEDVGVYYCFQGSHVPLTFGQGTKLEIKRTVAAPSVFIFPPSDEQLKSGTASVVCLLNNFYPREAKVQWKVDNALQSGNSQESVTEQDSKDSTYSLSSTLTLSKADYEKHKVYACEVTHQGLSSPVTKSFNRGEC
